Experimental data published in patent publication US20160108123A1 (Novartis, published 2016).

Legend:
[1] = molecular target: T1, human PD-L1 expressed on 300.19 cells (human, UniProt Q9NZQ7 19-290); assay: competition FACS against Alexa 488-labeled murine BAP058 on PD-L1-expressing 300.19 cells
T1 construct: whole, on cells; also called huPD-L1; PD-L1-expressing 300.19 cells
Protocol: Incubations with the mAb mixtures having different concentration ratios of test mAb to labeled mAb was at 4° C. for 30 min. Bound labeled murine mAb was then quantified using a FACS machine. The experiment was performed twice.

[2] = molecular target: T1, human PD-L1 expressed on 300.19 cells; assay: semi-quantitative ranking in the binding studies (4th column, p-1058; FACS data, p-1056); high number = poorer binder; the column's head says only 'Rank'
[3] = molecular target: T1, human PD-L1 expressed on 300.19 cells; assay: blocking of PE-labelled PD-1-Ig (0.7 µg/mL) binding to PD-L1-expressing 300.19 cells, FACS, 4 C, 4 h
Protocol: Bound fluorescence was then measured using FACS and IC₅₀ values determined using Prism software.

human PD-L1 protein = molecular target: T2, human PD-L1 protein (human, UniProt Q9NZQ7 19-238, limits assumed); assay: Biacore T-100; IgG captured by anti-human Fab on CM5 chip, PD-L1 flowed over (100-1.56 nM), 1:1 fit
T2 construct: Construct not described
T2 sequence (Q9NZQ7 19-238 limits assumed): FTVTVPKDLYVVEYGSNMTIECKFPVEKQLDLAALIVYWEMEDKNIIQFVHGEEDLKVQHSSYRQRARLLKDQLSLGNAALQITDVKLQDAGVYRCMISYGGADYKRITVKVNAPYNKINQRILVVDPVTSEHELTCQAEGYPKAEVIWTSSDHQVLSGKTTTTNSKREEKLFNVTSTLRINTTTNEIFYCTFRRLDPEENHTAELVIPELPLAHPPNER
Protocol: (§1) Immobilization was done at 25° C. using a flow rate of 10 μl/min. […] Test antibody was captured on Flow cell FC2, FC3 and FC4. […] Run Biacore Wizards Kinetic/Affinity: association time 120 sec, dissociation 600 sec. (Running buffer HBS-EP+BSA 0.25 mg/ml, Regeneration buffer: 10 mM glycine HCl pH 2.1). Data analyses were done with Biacore T-100 Evaluation software version 2, fit on 1:1.

cynomolgus PD-L1 protein = molecular target: T3, cynomolgus PD-L1 protein (cynomolgus, UniProt G7PSE7 19-238); assay: as above
T3 construct: also called Monkey PD-L1; cyno PD-L1
T3 sequence (G7PSE7 entry or part of it): as the sequence (Q9NZQ7 19-238 limits assumed) above, with A33T, A34S, S62N, R68Q, Q82R, F173L, T185A, T192I, H215L counted along it
Protocol: as §1

mouse PD-L1 protein = mouse PD-L1 protein (mouse, UniProt Q9EP73 19-238, limits assumed); assay: as above
Chain of mouse PD-L1 protein (Q9EP73 19-238 limits assumed): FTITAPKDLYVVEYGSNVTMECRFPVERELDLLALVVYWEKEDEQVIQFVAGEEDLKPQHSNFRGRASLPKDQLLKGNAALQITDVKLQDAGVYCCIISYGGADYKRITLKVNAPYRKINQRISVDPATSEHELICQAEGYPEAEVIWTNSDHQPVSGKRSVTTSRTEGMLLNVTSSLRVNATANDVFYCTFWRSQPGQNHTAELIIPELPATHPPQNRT
Protocol: as §1

rat PD-L1 protein = rat PD-L1 protein (rat, UniProt D4AE25 19-239); assay: as above
Chain of rat PD-L1 protein (D4AE25 entry or part of it limits assumed): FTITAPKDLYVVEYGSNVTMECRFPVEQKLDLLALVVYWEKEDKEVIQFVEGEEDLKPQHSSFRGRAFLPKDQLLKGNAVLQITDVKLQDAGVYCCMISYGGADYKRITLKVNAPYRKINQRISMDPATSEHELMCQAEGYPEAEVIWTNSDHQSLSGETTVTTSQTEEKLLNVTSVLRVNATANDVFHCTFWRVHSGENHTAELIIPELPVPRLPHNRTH
Protocol: as §1

T1 sequence (Q9NZQ7 19-290): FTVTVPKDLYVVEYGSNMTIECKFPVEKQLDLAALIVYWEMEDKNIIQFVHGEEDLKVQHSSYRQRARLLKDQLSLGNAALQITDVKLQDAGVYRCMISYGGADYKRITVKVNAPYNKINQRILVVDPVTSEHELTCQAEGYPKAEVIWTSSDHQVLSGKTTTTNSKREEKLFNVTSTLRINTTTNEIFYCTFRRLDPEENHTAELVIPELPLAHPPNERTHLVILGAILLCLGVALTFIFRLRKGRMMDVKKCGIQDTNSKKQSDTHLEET

Comp. binding (ratio conc. test mAb / conc. labelled murine BAP058 at the IC50) [1]	Rank [2]	Binder	further results
3.38	17	BAP058-hum08 (antibody, human IgG4 S228P, kappa, Humanized IgG4(S228P)/human kappa mAb expressed in CHO cells) heavy: not shown light: DVVMTQSPLSLPVTLGQPASISCKASQDVGTAVAWYQQKPGQAPRLLIYWASTRHTGVPSRFSGSGSGTEFTLTISSLQPDDFATYYCQQYNSYPLTFGQGTKVEIKRTVAAPSVFIFPPSDEQLKSGTASVVCLLNNFYPREAKVQWKVDNALQSGNSQESVTEQDSKDSTYSLSSTLTLSKADYEKHKVYACEVTHQGLSSPVTKSFNRGEC	
2.56	17	BAP058-hum01 (antibody, human IgG4 S228P, kappa, V domains shown, Humanized IgG4(S228P)/human kappa mAb expressed in CHO cells) VH: QVQLVQSGAEVKKPGASVKVSCKASGYTFTSYWMYWVRQATGQGLEWMGRIDPNSGSTKYNEKFKNRFTISRDDSKNTAYLQMNSLKTEDTAVYYCARDYRKGLYAMDYWGQGTTVTVSS VL: DIVMTQTPLSLPVTPGEPASISCKASQDVGTAVAWYLQKPGQSPQLLIYWASTRHTGIPARFSGSGSGTEFTLTISSLQSEDFAVYYCQQYNSYPLTFGQGTKVEIKR	
2.14	17	BAP058-hum02 (antibody, human IgG4 S228P, kappa, V domains shown, Humanized IgG4(S228P)/human kappa mAb expressed in CHO cells) VH: QVQLVQSGAEVKKPGASVKVSCKASGYTFTSYWMYWVRQATGQGLEWMGRIDPNSGSTKYNEKFKNRFTISRDDSKNTAYLQMNSLKTEDTAVYYCARDYRKGLYAMDYWGQGTTVTVSS VL: DIQMTQSPSSLSASVGDRVTITCKASQDVGTAVAWYLQKPGQSPQLLIYWASTRHTGVPSRFSGSGSGTDFTLTISSLQPEDFATYYCQQYNSYPLTFGQGTKVEIKR	
1.96	3	BAP058-hum09 (antibody, human IgG4 S228P, kappa, V domains shown, Humanized IgG4(S228P)/human kappa mAb expressed in CHO cells) VH: EVQLVQSGAEVKKPGESLRISCKGSGYTFTSYWMYWIRQPPGKGLEWIGRIDPNSGSTKYNEKFKNRVTITADKSTSTAYMELSSLRSEDTAVYYCARDYRKGLYAMDYWGQGTTVTVSS VL: DIVMTQTPLSLPVTPGEPASISCKASQDVGTAVAWYLQKPGQSPQLLIYWASTRHTGIPARFSGSGSGTEFTLTISSLQSEDFAVYYCQQYNSYPLTFGQGTKVEIKR	
4.59	4	BAP058-hum14 (antibody, human IgG4 S228P, kappa, V domains shown, Humanized IgG4(S228P)/human kappa mAb expressed in CHO cells) VH: QVQLVQSGAEVKKPGASVKVSCKASGYTFTSYWMYWVRQATGQGLEWMGRIDPNSGSTKYNEKFKNRFTISRDDSKNTAYLQMNSLKTEDTAVYYCARDYRKGLYAMDYWGQGTTVTVSS VL: EIVLTQSPDFQSVTPKEKVTITCKASQDVGTAVAWYQQKPGQAPRLLIYWASTRHTGVPSRFSGSGSGTEFTLTISSLQPDDFATYYCQQYNSYPLTFGQGTKVEIKR	
1.8	2	BAP058-hum07 (antibody, human IgG4 S228P, kappa, V domains shown, Humanized IgG4(S228P)/human kappa mAb expressed in CHO cells) VH: QVQLVQSGAEVKKPGASVKVSCKASGYTFTSYWMYWIRQSPSRGLEWLGRIDPNSGSTKYNEKFKNRFTISRDDSKNTAYLQMNSLKTEDTAVYYCARDYRKGLYAMDYWGQGTTVTVSS VL: EIVLTQSPATLSLSPGERATLSCKASQDVGTAVAWYLQKPGQSPQLLIYWASTRHTGIPPRFSGSGYGTDFTLTINNIESEDAAYYFCQQYNSYPLTFGQGTKVEIKR	IC50 (read off the curve) [3]: ~0.04 µg/mL
2.47	4	BAP058-hum16 (antibody, human IgG4 S228P, kappa, V domains shown, Humanized IgG4(S228P)/human kappa mAb expressed in CHO cells) VH: QVQLVQSGAEVKKPGASVKVSCKASGYTFTSYWMYWIRQSPSRGLEWLGRIDPNSGSTKYNEKFKNRFTISRDDSKNTAYLQMNSLKTEDTAVYYCARDYRKGLYAMDYWGQGTTVTVSS VL: EIVLTQSPDFQSVTPKEKVTITCKASQDVGTAVAWYQQKPGQAPRLLIYWASTRHTGVPSRFSGSGSGTEFTLTISSLQPDDFATYYCQQYNSYPLTFGQGTKVEIKR	
2.27	4	BAP058-hum12 (antibody, human IgG4 S228P, kappa, V domains shown, Humanized IgG4(S228P)/human kappa mAb expressed in CHO cells) VH: EVQLVQSGAEVKKPGESLRISCKGSGYTFTSYWMYWVRQAPGQGLEWMGRIDPNSGSTKYNEKFKNRVTISVDTSKNQFSLKLSSVTAADTAVYYCARDYRKGLYAMDYWGQGTTVTVSS VL: DIQMTQSPSSLSASVGDRVTITCKASQDVGTAVAWYQQKPGQAPRLLIYWASTRHTGVPSRFSGSGSGTDFTFTISSLQPEDIATYYCQQYNSYPLTFGQGTKVEIKR	
2.16	4	BAP058-hum17 (antibody, human IgG4 S228P, kappa, Humanized IgG4(S228P)/human kappa mAb expressed in CHO cells) heavy: not shown light: EIVLTQSPDFQSVTPKEKVTITCKASQDVGTAVAWYQQKPGQAPRLLIYWASTRHTGVPSRFSGSGSGTEFTLTISSLQPDDFATYYCQQYNSYPLTFGQGTKVEIKRTVAAPSVFIFPPSDEQLKSGTASVVCLLNNFYPREAKVQWKVDNALQSGNSQESVTEQDSKDSTYSLSSTLTLSKADYEKHKVYACEVTHQGLSSPVTKSFNRGEC	
	4	BAP058-hum10 (antibody, human IgG4 S228P, kappa, V domains shown, Humanized IgG4(S228P)/human kappa mAb expressed in CHO cells) VH: QITLKESGPTLVKPTQTLTLTCTFSGYTFTSYWMYWVRQAPGKGLEWVSRIDPNSGSTKYNEKFKNRVTITADKSTSTAYMELSSLRSEDTAVYYCARDYRKGLYAMDYWGQGTTVTVSS VL: DVVMTQSPLSLPVTLGQPASISCKASQDVGTAVAWYQQKPGQAPRLLIYWASTRHTGVPSRFSGSGSGTEFTLTISSLQPDDFATYYCQQYNSYPLTFGQGTKVEIKR	
1.87	1	BAP058-hum03 (antibody, human IgG4 S228P, kappa, V domains shown, Humanized IgG4(S228P)/human kappa mAb expressed in CHO cells) VH: EVQLVQSGAEVKKPGATVKISCKVSGYTFTSYWMYWVRQATGQGLEWMGRIDPNSGSTKYNEKFKNRVTITADKSTSTAYMELSSLRSEDTAVYYCARDYRKGLYAMDYWGQGTTVTVSS VL: EIVLTQSPDFQSVTPKEKVTITCKASQDVGTAVAWYLQKPGQSPQLLIYWASTRHTGVPDRFSGSGSGTDFTLKISRVEAEDVGVYYCQQYNSYPLTFGQGTKVEIKR	IC50 (read off the curve) [3]: ~0.04 µg/mL
1.71	2	BAP058-hum05 (antibody, human IgG4 S228P, kappa, V domains shown, Humanized IgG4(S228P)/human kappa mAb expressed in CHO cells) VH: EVQLVQSGAEVKKPGATVKISCKVSGYTFTSYWMYWIRQSPSRGLEWLGRIDPNSGSTKYNEKFKNRLTISKDTSKNQVVLTMTNMDPVDTATYYCARDYRKGLYAMDYWGQGTTVTVSS VL: EIVLTQSPDFQSVTPKEKVTITCKASQDVGTAVAWYLQKPGQSPQLLIYWASTRHTGVPSRFSGSGSGTDFTFTISSLQPEDIATYYCQQYNSYPLTFGQGTKVEIKR	
1.39	2	BAP058-hum06 (antibody, human IgG4 S228P, kappa, V domains shown, Humanized IgG4(S228P)/human kappa mAb expressed in CHO cells) VH: EVQLVQSGAEVKKPGESLRISCKGSGYTFTSYWMYWIRQPPGKGLEWIGRIDPNSGSTKYNEKFKNRVTITADKSTSTAYMELSSLRSEDTAVYYCARDYRKGLYAMDYWGQGTTVTVSS VL: EIVLTQSPDFQSVTPKEKVTITCKASQDVGTAVAWYLQKPGQSPQLLIYWASTRHTGVPSRFSGSGSGTDFTFTISSLQPEDIATYYCQQYNSYPLTFGQGTKVEIKR	
1.13	3	BAP058-hum04 (antibody, human IgG4 S228P, kappa, V domains shown, Humanized IgG4(S228P)/human kappa mAb expressed in CHO cells) VH: EVQLVQSGAEVKKPGESLRISCKGSGYTFTSYWMYWVRQAPGQGLEWMGRIDPNSGSTKYNEKFKNRVTISVDTSKNQFSLKLSSVTAADTAVYYCARDYRKGLYAMDYWGQGTTVTVSS VL: EIVLTQSPDFQSVTPKEKVTITCKASQDVGTAVAWYLQKPGQSPQLLIYWASTRHTGVPSRFSGSGSGTDFTFTISSLQPEDIATYYCQQYNSYPLTFGQGTKVEIKR	Kd (human PD-L1 protein): 2.14 nM; Kd (cynomolgus PD-L1 protein): 0.369 nM; Kd (mouse PD-L1 protein): 77.4 nM; Kd (rat PD-L1 protein): 6.14 nM; IC50 (read off the curve) [3]: ~0.04 µg/mL
4.64	17	BAP058-hum15 (antibody, human IgG4 S228P, kappa, V domains shown, Humanized IgG4(S228P)/human kappa mAb expressed in CHO cells) VH: EVQLVQSGAEVKKPGESLRISCKGSGYTFTSYWMYWIRQPPGKGLEWIGRIDPNSGSTKYNEKFKNRVTITADKSTSTAYMELSSLRSEDTAVYYCARDYRKGLYAMDYWGQGTTVTVSS VL: EIVLTQSPDFQSVTPKEKVTITCKASQDVGTAVAWYQQKPGQAPRLLIYWASTRHTGVPSRFSGSGSGTEFTLTISSLQPDDFATYYCQQYNSYPLTFGQGTKVEIKR	
		chimeric mAb BAP058-chi (antibody, V domains shown, also called chimeric antibody; the chimera) VH: EVQLQQSGAELVKPGASVKLSCKASGYTFTSYWMYWVKQGPGRGLEWIGRIDPNSGSTKYNEKFKNKATLTVDKSSSTAYMQLSSLTSEDSAVYYCARDYRKGLYAMDYWGQGTTVTVSS VL: DIMMTQSHKFMSTSVGDRVSITCKASQDVGTAVAWYQQKPGQSPKLLIYWASTRHTGVPDRFTGSGSGTDFTLTISNVQSEDLADYFCQQYNSYPLTFGQGTKVEIK	IC50 (read off the curve) [3]: ~0.04 µg/mL
